# Test results taken from patent US20120121591A1 (priority 2009, published 2012).
# Read-outs that look alike come from different tables or passages of the source. No end group written: not given here.
# B1: Bivalent Fc-L10-ShK[2-35] homodimer (Fc fusion)
# chain: GGGGSGGGGSSCIDTIPKSRCTAFQCKHSMKYRLSFCRKTCGTC
# modifications: not fully specified (N-terminus); ends and bridges not checked; also: homodimer via Fc
# B2: Bivalent Fc-L10-ShK[1-35] homodimer (Fc fusion)
# chain: GGGGSGGGGSRSCIDTIPKSRCTAFQCKHSMKYRLSFCRKTCGTC
# modifications: not fully specified (N-terminus); ends and bridges not checked; also: homodimer via Fc
# Experiments:
# human Kv1.3 [1] = target: T1, human Kv1.3 (Homo sapiens, UniProt P22001); experiment: cell-based or functional assay
# T1 sequence (P22001 whole entry): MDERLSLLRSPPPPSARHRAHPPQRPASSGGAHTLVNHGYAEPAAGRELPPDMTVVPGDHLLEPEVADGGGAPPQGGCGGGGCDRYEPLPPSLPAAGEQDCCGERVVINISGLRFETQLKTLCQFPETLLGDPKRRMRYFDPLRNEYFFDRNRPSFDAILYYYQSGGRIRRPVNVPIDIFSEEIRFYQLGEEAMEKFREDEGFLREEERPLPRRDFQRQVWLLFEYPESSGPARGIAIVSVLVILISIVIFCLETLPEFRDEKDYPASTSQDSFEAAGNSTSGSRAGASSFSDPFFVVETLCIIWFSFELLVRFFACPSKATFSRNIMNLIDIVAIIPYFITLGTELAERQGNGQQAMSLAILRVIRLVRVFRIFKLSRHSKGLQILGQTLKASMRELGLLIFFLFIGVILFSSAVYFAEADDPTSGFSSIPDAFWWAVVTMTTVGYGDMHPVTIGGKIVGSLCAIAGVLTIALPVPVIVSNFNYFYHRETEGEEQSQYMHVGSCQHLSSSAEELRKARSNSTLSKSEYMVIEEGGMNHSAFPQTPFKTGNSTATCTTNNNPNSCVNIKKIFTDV
# human Kv1.1 [2] = target: T2, human Kv1.1 (Homo sapiens, UniProt Q09470); experiment: cell-based or functional assay
# T2 sequence (Q09470 whole entry): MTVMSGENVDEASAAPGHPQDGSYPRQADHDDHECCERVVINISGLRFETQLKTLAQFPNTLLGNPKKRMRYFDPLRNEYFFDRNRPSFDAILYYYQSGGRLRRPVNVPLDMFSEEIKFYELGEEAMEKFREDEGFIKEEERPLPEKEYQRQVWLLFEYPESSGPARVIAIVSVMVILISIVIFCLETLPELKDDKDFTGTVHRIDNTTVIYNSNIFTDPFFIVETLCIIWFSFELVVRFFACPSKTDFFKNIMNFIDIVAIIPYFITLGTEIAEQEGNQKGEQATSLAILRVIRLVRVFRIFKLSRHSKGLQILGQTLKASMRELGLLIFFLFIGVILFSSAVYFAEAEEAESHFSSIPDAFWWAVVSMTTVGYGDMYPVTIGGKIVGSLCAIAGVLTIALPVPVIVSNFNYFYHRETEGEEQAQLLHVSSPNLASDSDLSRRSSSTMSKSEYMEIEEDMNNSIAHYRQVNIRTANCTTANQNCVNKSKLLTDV
# human Kv1.1 [3] = target: T2, human Kv1.1; experiment: cell-based or functional assay; remark: listed apart in the source
# human Kv1.3 [4] = target: T1, human Kv1.3; experiment: cell-based or functional assay; remark: listed apart in the source
# hKv1.3 = hKv1.3 (Homo sapiens, UniProt P22001); experiment: cell-based; assay type: cell-based; details: Kv1.3 (IWQ) IC50 (nM, Avg)
# Chain of hKv1.3 (P22001 whole entry): as the sequence (P22001 whole entry) above
# [5] = test system: IL-2 secretion from T cells in human whole blood; assay type: cell-based; details: read-out: WB (IL-2) IC50 (nM, Avg)
# [6] = test system: IFN-g secretion from T cells in human whole blood; assay type: cell-based
# [7] = read-out: WB (IFNg) IC50 (nM, Avg)
Molecule,Kv1.3 (IWQ) IC50 (human Kv1.3 [1]) [nM],WB (IFNg) IC50 (human Kv1.3 [1]) [nM],WB (IL-2) IC50 (human Kv1.3 [1]) [nM],other results
[1-Nal11]ShK (peptide),0.922,1.65,1.14,–
[1-Nal25]ShK (peptide),0.106,0.084,0.061,–
30kDaPEG-ShK (peptide),1.93,2.42,0.372,Kv1.1 (IWQ) IC50 (human Kv1.1 [2]): 0.182 nM
20kDaPEG-[1-Nal16]ShK (peptide),39.1,100,100,–
[1-Nal29]ShK (peptide),–,8.08,4.72,–
FcLoop(ShK).L25.Fc (Fc fusion),–,–,–,In vitro whole blood assay (inhibition of IL-2) IC50 (human Kv1.3 [1]): 1.91 nM
[1-Nal21]ShK (peptide),0.669,8.13,6.59,–
[1-Nal19]ShK (peptide),0.277,0.255,0.153,Kv1.1 (IWQ) IC50 (human Kv1.1 [2]): 0.001 nM
[1-Nal6]ShK (peptide),0.15,0.962,0.86,–
[1-Nal2]ShK (peptide),0.25,0.258,0.223,–
[1-Nal31]ShK (peptide),–,–,–,Kv1.1 (IWQ) IC50 (human Kv1.1 [2]): 0.004 nM
[1-Nal14]ShK (peptide),–,0.11,0.089,–
30kPEG-[Lys16]ShK (peptide),0.454,–,–,Kv1.1 (IWQ) IC50 (human Kv1.1 [2]): 33.3 nM; Kv1.1 (PX) IC50 (human Kv1.1 [3]): 1070 nM; Kv1.3 (PX) IC50 (human Kv1.3 [4]): 1.2 nM; WB (IFNg) IC50 (human Kv1.3 [4]): 0.491 nM; WB (IL-2) IC50 (human Kv1.3 [4]): 0.282 nM
[1-Nal26]ShK (peptide),0.352,0.573,0.357,–
Fc.L20.FcLoop(ShK) (Fc fusion),–,–,–,In vitro whole blood assay (inhibition of IL-2) IC50 (human Kv1.3 [1]): 2.01 nM
[1-Nal10]ShK (peptide),0.206,0.255,0.205,–
[1-Nal4]ShK (peptide),0.15,0.317,0.274,–
[1-Nal18]ShK (peptide),0.471,0.375,0.419,–
[1-Nal27]ShK (peptide),0.144,2.84,1.07,–

Molecule,Kv1.3 (IWQ) IC50 (human Kv1.3 [1]) [nM],WB (IFNg) IC50 (human Kv1.3 [1]) [nM],WB (IL-2) IC50 (human Kv1.3 [1]) [nM],other results
[1-Nal15]ShK (peptide),0.072,0.291,0.184,Kv1.1 (IWQ) IC50 (human Kv1.1 [2]): 0.009 nM
[Dab16]ShK (peptide),0.082,–,0.086,–
[1-Nal7]ShK (peptide),0.699,18,11.6,–
HmK (peptide),0.9,1.2,0.85,Kv1.1 (IWQ) IC50 (human Kv1.1 [2]): 0.015 nM
[1-Nal1]ShK (peptide),0.225,0.247,0.222,Kv1.1 (IWQ) IC50 (human Kv1.1 [2]): 0.005 nM
[Nle21]ShK (peptide),0.04,0.303,0.153,Kv1.1 (IWQ) IC50 (human Kv1.1 [2]): 0.015 nM
[1-Nal16]ShK (peptide),0.699,9.55,28.9,–
[1-Nal20]ShK (peptide),2.11,100,100,–
[1-Nal23]ShK (peptide),3.3,100,100,Kv1.1 (IWQ) IC50 (human Kv1.1 [2]): 3.3 nM
[1-Nal5]ShK (peptide),–,31.9,70.4,–
Monovalent Fc/Fc-L10-ShK[2-35] heterodimer (Fc fusion),–,–,–,WB (IFNg) IC50 (human Kv1.3 [4]): 5.2 nM; WB (IL-2) IC50 (human Kv1.3 [4]): 2.15 nM
[1-Nal34]ShK (peptide),0.077,0.063,0.018,–
20 kDa PEG-ShK (peptide),1.21,0.855,0.387,Kv1.1 (IWQ) IC50 (human Kv1.1 [2]): 0.11 nM; Kv1.1 IC50 (whole cell patch clamp) (human Kv1.1 [3]): 1.63 nM; Kv1.3 IC50 (whole cell patch clamp) (human Kv1.3 [4]): 0.299 nM; WB (IFNg) IC50 (human Kv1.3 [4]): 0.84 nM; WB (IL-2) IC50 (human Kv1.3 [4]): 0.38 nM
CC[C@H](C)[C@@H]1NC(=O)[C@@H](NC(=O)[C@H](CO)NC(=O)[C@@H](N)CCCNC(=N)N)CSSC[C@@H](C(=O)O)NC(=O)[C@H]([C@@H](C)O)NC(=O)CNC(=O)[C@@H]2CSSC[C@@H]3NC(=O)[C@H](CCC(N)=O)NC(=O)[C@H](Cc4ccccc4)NC(=O)[C@H](C)NC(=O)[C@H]([C@@H](C)O)NC(=O)[C@H](CSSC[C@H](NC(=O)[C@H](Cc4ccccc4)NC(=O)[C@H](CO)NC(=O)[C@H](CC(C)C)NC(=O)[C@H](CCCNC(=N)N)NC(=O)[C@H](Cc4ccc(O)cc4)NC(=O)[C@H](CCCCN)NC(=O)[C@H](CCC(=O)O)NC(=O)[C@H](CO)NC(=O)[C@H](Cc4c[nH]cn4)NC(=O)[C@H](CCCCN)NC3=O)C(=O)N[C@@H](CCCNC(=N)N)C(=O)N[C@@H](CCCCN)C(=O)N[C@@H]([C@@H](C)O)C(=O)N2)NC(=O)[C@H](CCCNC(=N)N)NC(=O)[C@H](CO)NC(=O)[C@H](CCCCN)NC(=O)[C@@H]2CCCN2C(=O)[C@H]([C@@H](C)CC)NC(=O)[C@H]([C@@H](C)O)NC(=O)[C@H](CC(=O)O)NC1=O [[Glu21]ShK],–,–,–,"IC50 (hKv1.3): 3.33 nM; IC50 [5]: 18.5 nM; IC50 ([6]; read-out: WB (IFNg) IC5- (nM, Avg)): 28.1 nM"
"CC[C@H](C)[C@@H]1NC(=O)[C@@H](NC(=O)[C@H](CO)NC(=O)[C@@H](N)CCCNC(=N)N)CSSC[C@@H](C(N)=O)NC(=O)[C@H]([C@@H](C)O)NC(=O)CNC(=O)[C@@H]2CSSC[C@@H]3NC(=O)[C@H](CCCCN)NC(=O)[C@H](Cc4ccccc4)NC(=O)[C@H](C)NC(=O)[C@H]([C@@H](C)O)NC(=O)[C@H](CSSC[C@H](NC(=O)[C@H](Cc4c[nH]c5ccccc45)NC(=O)[C@H](CO)NC(=O)[C@H](CC(C)C)NC(=O)[C@H](CCCNC(=N)N)NC(=O)[C@H](Cc4ccc(O)cc4)NC(=O)[C@H](CCCCN)NC(=O)[C@H](CCSC)NC(=O)[C@H](CO)NC(=O)[C@H](Cc4c[nH]cn4)NC(=O)[C@H](CCCCN)NC3=O)C(=O)N[C@@H](CCCCN)C(=O)N[C@@H](CCCCN)C(=O)N[C@@H]([C@@H](C)O)C(=O)N2)NC(=O)[C@H](CCCNC(=N)N)NC(=O)[C@H](CO)NC(=O)[C@H](CCCCN)NC(=O)[C@@H]2CCCN2C(=O)[C@H]([C@@H](C)CC)NC(=O)[C@H]([C@@H](C)O)NC(=O)[C@H](CC(=O)O)NC1=O [[Lys16,29;Trp27]ShK-amide]",–,–,–,"IC50 (hKv1.3): 0.121 nM; IC50 [5]: 0.264 nM; IC50 [6, 7]: 0.606 nM"
FcLoopShk/FcLoopShk (bivalent Fc) (Fc fusion),–,–,–,In vitro whole blood assay (inhibition of IL-2) IC50 (human Kv1.3 [1]): 2 nM
"CC[C@@H]1NC(=O)[C@H](CO)NC(=O)[C@H](Cc2c[nH]cn2)NC(=O)[C@H](CCCCN)NC(=O)[C@@H]2CSSC[C@@H]3NC(=O)[C@H]([C@@H](C)O)NC(=O)[C@H](CCCCN)NC(=O)[C@H](CCCNC(=N)N)NC(=O)[C@H](CSSC[C@H](NC(=O)[C@H](CCCNC(=N)N)NC(=O)[C@H](CO)NC(=O)[C@H](CCCCN)NC(=O)[C@@H]4CCCN4C(=O)[C@H]([C@@H](C)CC)NC(=O)[C@H]([C@@H](C)O)NC(=O)[C@H](CC(=O)O)NC(=O)[C@H]([C@@H](C)CC)NC(=O)[C@@H](NC(=O)[C@H](CO)NC(=O)[C@@H](N)CCCNC(=N)N)CSSC[C@@H](C(N)=O)NC(=O)[C@H]([C@@H](C)O)NC(=O)CNC3=O)C(=O)N[C@@H]([C@@H](C)O)C(=O)N[C@@H](C)C(=O)N[C@@H](Cc3ccccc3)C(=O)N[C@@H](CCCCN)C(=O)N2)NC(=O)[C@H](Cc2ccccc2)NC(=O)[C@H](CO)NC(=O)[C@H](CC(C)C)NC(=O)[C@H](CCCNC(=N)N)NC(=O)[C@H](Cc2ccc(O)cc2)NC(=O)[C@H](CCCCN)NC1=O [[Lys16, Abu21]ShK-amide]",–,–,–,"IC50 (hKv1.3): 0.246 nM; IC50 [5]: 1.2 nM; IC50 [6, 7]: 1.53 nM"
B1,–,–,–,Kv1.1 IC50 (whole cell patch clamp) (human Kv1.1 [3]): 0.411 nM; Kv1.3 IC50 (whole cell patch clamp) (human Kv1.3 [4]): 0.116 nM; WB (IFNg) IC50 (human Kv1.3 [4]): 2.29 nM; WB (IL-2) IC50 (human Kv1.3 [4]): 0.585 nM
B2,–,–,–,Kv1.1 IC50 (whole cell patch clamp) (human Kv1.1 [3]): 0.067 nM; Kv1.3 IC50 (whole cell patch clamp) (human Kv1.3 [4]): 0.015 nM; WB (IFNg) IC50 (human Kv1.3 [4]): 0.32 nM; WB (IL-2) IC50 (human Kv1.3 [4]): 0.386 nM
